We go through three molecules from US10184116B2, “Chimeric genes for the catalytic protein of Oplophorus luciferase and use thereof” (JNC CORPORATION, priority 2014, dated 2019).

Changes are numbered by the printed parent chain. Numbers in names are those of the source. Some results are limits rather than exact numbers.

Series [1] in a line: Luminescence activity of ZZ-fused WNanoKAZ mutants in crude enzyme solution (Example 10). The following applies: coelenterazine substrate; for Relative luminescence activity (Imax): ZZ-fused, pCold-ZZ-P- vector in E. coli, KAZ = 1.0; for fold higher activity than native KAZ / fold higher activity than the relative activity 7.4 of dnKAZ: Imax. The series is classed as biochemical. The method, then: In order to express ZZ-fused KAZ mutants in E. coli, the recombinant plasmid produced in EXAMPLE 8 and pCold-ZZ-P-WNanoKAZ produced in EXAMPLE 1 were used. The crude enzyme solution was prepared in a manner similar to EXAMPLE 2, using the E. coli BL21 strain (Novagen, Madison, Wis.) as a host cell. Then, 5 μL of the crude enzyme solution obtained was subjected to SDS-PAGE analysis to confirm the protein expression in all mutants. In FIG. 1, M and 1 to 8 represent as follows. M: molecular weight size markers; 1: ZZ-P-KAZ; 2: ZZ-P-WNanoKAZ; 3: ZZ-P-WNanoKAZ-V90I; 4: ZZ-P-WNanoKAZ-E115P; 5: ZZ-P-WNanoKAZ-K124Q; 6: ZZ-P-WNanoKAZ-I138Y; 7: ZZ-P-WNanoKAZ-R166N; 8: ZZ-P-dnKAZ. It was confirmed from FIG. 1 that all mutants were expressed.
(§1) DTT was added to the crude enzyme solution obtained in EXAMPLE 9 at a final concentration of 1 mM, and then allowed to stand in an ice-water bath over 8 hours or more. After 1 μL of the crude enzyme solution was added to 100 μL of 30 mM Tris-HCl (pH 7.6)-10 mM EDTA (Wako Pure Chemical Industries, Ltd.) containing 1 μg of coelenterazine (manufactured by JNC Corp.), a luminescence reaction was started. Luminescence activity was measured for 60 seconds using a luminometer (manufactured by Atto Inc.: AB2200). The maximum intensity of luminescence (Imax) was given as a relative luminescence activity (rlu).

Series [2] can be described thus: Substrate specificity of WNanoKAZ mutants, crude enzyme solution (Example 11). The series is classed as biochemical. The following applies: for Relative luminescence activity, 6h-CTZ, Imax / Relative luminescence activity, 6h-CTZ, Int.: substrate 6h-CTZ; for Relative luminescence activity, 6h-f-CTZ, Imax / Relative luminescence activity, 6h-f-CTZ, Int.: substrate 6h-f-CTZ; for Relative luminescence activity, CTZ, Imax / Relative luminescence activity, CTZ, Int.: substrate CTZ. The method, then: as §1
Each of the coelenterazine analogues used for substrate specificity studies was synthesized by the methods described in publications. Specifically, bis-coelenterazine was synthesized by the method described in Nakamura et al. (1997) Tetrahedron Lett. 38: 6405-6406, furimazine by the method described in Hall et al. (2012) ACS Chem. Biol. […], and, 6h-coelenterazine, f-coelenterazine and 6h-f-coelenterazine by the method described in Inouye et al (2013) Biochem. Biophys. Res. Commun. 437: 23-28. Luminescence activity was measured by the same method as in EXAMPLE 10, using the crude enzyme solution obtained in EXAMPLE 10, in which coelenterazine or its analogue was used as the luminescence substrate.

Series [3] deals with CHO-K1 cells. The series can be described thus: Luminescence activity of WNanoKAZ mutants expressed by secretory expression vectors in animal culture cells (Example 13). In kind it is cell-based, Chinese hamster. The following applies: pcDNA3-GLsp- secretory vector, coelenterazine substrate. The method, then: (§2) Chinese hamster ovary cell line CHO-K1 was cultured in Ham's F-12 medium (manufactured by Wako Pure Chemical Industries, Ltd.) supplemented with 10% (v/v) fetal bovine serum (manufactured by Biowest Inc.). The CHO-K1 cells were seeded in a 6-well plate in 1×10^5 cells/well/2 mL medium (n=2) and cultured in an incubator at 37° C. in 5% (v/v) CO2. After 24 hours, the purified recombinant plasmid was transfected to CHO-K1 cells using a FuGene HD transfection kit (manufactured by Promega Corp.) and the cells were used for subsequent experiment. Specifically, 1 μg of the recombinant plasmid, 0.1 μg of the internal standard vector pGL4.13 [Luc2/sv40] and 3 μL of FuGene HD were added to 100 μL of the medium and allowed to stand at room temperature for 15 minutes. Subsequently, 100 μL of the DNA-FuGene complex solution was added to the cells in the 6-well plate. After incubation for 46 hours, the culture medium was collected. On the other hand, the KAZ mutant expressed in the cells was washed 3 times with 3 mL of 1×PBS, then suspended in 1 mL of 1×PBS and disrupted by sonication on ice. The resultant cell extract of WNanoKAZ was used as the enzyme solution.
(§3) After adding 5 μL of the culture medium and cell extract obtained in EXAMPLE 5 to 100 μL of 30 mM Tris-HCl (pH 7.6)-10 mM EDTA (Wako Pure Chemical Industries, Ltd.) containing 1 μg of coelenterazine (manufactured by JNC Corp.), a luminescence reaction was started. Luminescence activity was measured for 60 seconds using a luminometer (manufactured by Atto Inc.: AB2200). The maximum intensity of luminescence (Imax) was given as a percentage (%).
The recombinant plasmid obtained in EXAMPLE 12 or 4 was purified in a manner similar to EXAMPLE 5 and dissolved in sterile water. The firefly luciferase vector (pGL4.13 [Luc2/sv40]: manufactured by Promega Corp.) was similarly prepared and used as an internal standard.
Culture medium containing two amino acid-substituted KAZ mutants and three amino acid-substituted KAZ mutants and cell extracts of the KAZ mutants as the enzyme solutions were prepared by the same procedure as in EXAMPLE 9.
The resultant culture medium and cell extracts were used to measure luminescence activity as in EXAMPLE 6.

The test system of series [4] is CHO-K1 cells. Nature of the series: Luminescence activity of KAZ mutants expressed in animal cultured cells, culture medium and cell extract (Example 6). In kind it is cell-based, Chinese hamster. As to conditions: pcDNA3-GLsp- vector in CHO-K1, coelenterazine substrate. The method, then: as §2, §3
Series [5] can be described thus: Luminescence activity of WNanoKAZ in crude enzyme solution (Example 3). The series is classed as biochemical. The following applies: for Relative luminescence activity (Imax): pCold-ZZ-P- vector in E. coli, KAZ = 1.0. The method, then:
In order to express WNanoKAZ in E. coli, pCold-ZZ-P-WNanoKAZ obtained in EXAMPLE 1 was used. The E. coli BL21 strain (Novagen, Madison, Wis.) was used as a host cell. The BL21 strain carrying the recombinant plasmid was incubated in 5 mL of Luria-Bertani medium (hereinafter designated as LB medium) containing ampicillin (50 μg/mL) at 37° C. for 17 hours. The seed culture of 0.1 mL was inoculated to 10 mL of LB medium and incubated for 3 hours, followed by cooling in freezing water for 1 hour. IPTG was added to the culture medium at a final concentration of 0.1 mM, followed by incubation at 15° C. for further 19 hours. After completion of the incubation, 1 mL of the culture medium was collected by centrifugation at 10,000 rpm for 2 minutes. The collected E. coli cells were suspended in 0.5 mL of 30 mM Tris-HCl (pH 7.6)-10 mM EDTA. The cells were disrupted by sonication for 3 seconds using a Branson Model 250 Sonifire (Danbury, Conn.) to give a crude enzyme solution. Then, DTT was added to the crude enzyme solution at a final concentration of 1 mM. After the mixture was allowed to stand in freezing water over 8 hours or more, the luminescence activity was measured.
1 μl of the crude enzyme solution obtained in EXAMPLE 2 was added to 100 μl of 30 mM Trix-HCl (pH 7.6)-10 mM EDTA (Wako Pure Chemical Industries, Ltd.) containing 1 μg of coelenterazine (manufactured by JINC Corp.), luminescence reaction was started. Luminescence activity was measured for 60 seconds using a luminometer (manufactured by Atto Inc.: AB2200); the maximum intensity of luminescence (Imax) was given as a relative luminescence activity.

Setting [6] is: crude enzyme solution, coelenterazine substrate.

B1: WNanoKAZ: chimeric protein: positions 1-82 of native KAZ and 83-169 of nanoKAZ; SEQ ID NO: 6; I90V, P115E, Q124K, Y138I, N166R (protein)
chain: FTLADFVGDWQQTAGYNQDQVLEQGGLSSLFQALGVSVTPIQKVVLSGENGLKADIHVIIPYEGLSGFQMGLIEMIFKVVYPVDDHHFKVILHYGTLVIDGVTPNMIDYFGRPYEGIAVFDGKKITVTGTLWNGNKIIDERLINPDGSLLFRVTINGVTGWRLCERILA
notes: chimeric protein: positions 1-82 of native KAZ and 83-169 of nanoKAZ; I90V, P115E, Q124K, Y138I, N166R
For B1, in series [1], the “Relative luminescence activity (Imax)” value is reported as 64, the “fold higher activity than native KAZ” value turned out to be 64 fold and the “fold higher activity than the relative activity 7.4 of dnKAZ” value came to 8.6 fold. In addition, in series [2], the “Relative luminescence activity, Furimazine, Imax” value amounted to 26; the “Relative luminescence activity, bis-CTZ, Imax” value came out at 32; the “Relative luminescence activity, f-CTZ, Imax” value is listed as 48; the “Relative luminescence activity, h-CTZ, Imax” value came to 64. For the same molecule, in series [2], the “Relative luminescence activity, Furimazine, Int.” value worked out at 29; the “Relative luminescence activity, bis-CTZ, Int.” value is reported as 24; the “Relative luminescence activity, f-CTZ, Int.” value was found to be 32; the “Relative luminescence activity, h-CTZ, Int.” value was 33. Further, in series [2], the “fold higher activity than the other coelenterazine analogues when coelenterazine was used as the substrate” value was found to be 8.6 fold; the “Relative luminescence activity, 6h-CTZ, Imax” value amounted to 8.9; the “Relative luminescence activity, 6h-CTZ, Int.” value is on record as 7.5; the “Relative luminescence activity, 6h-f-CTZ, Imax” value amounted to 41. Further, in series [2], the “Relative luminescence activity, 6h-f-CTZ, Int.” value turned out to be 34; the “Relative luminescence activity, CTZ, Imax” value is reported as 64; the “Relative luminescence activity, CTZ, Int.” value worked out at 56. In series [3], the “Relative luminescence activity (%, Imax) Cell extracts” value worked out at 22% and the “Relative luminescence activity (%, Imax) Culture medium” value is under 0.01%. Besides, in series [4], the “Relative luminescence activity (%, Imax) Cell extracts” value is 22% and the “Relative luminescence activity (%, Imax) Culture medium” value is listed as under 0.01%. The “fold higher activity than that of dnKAZ” value in series [5] (coelenterazine used as the substrate, as shown in EXAMPLE 3) stood at 64 fold. In addition, the “Relative luminescence activity (Imax)” value in series [5] (setting [6]) is on record as 64. Besides, the “fold higher activity than native KAZ” value in series [5] (crude enzyme solution, coelenterazine substrate, Imax) turned out to be 64 fold.

B2: KAZ: 19 kDa protein of native Oplophorus luciferase having luminescence activity; SEQ ID NO: 2 (protein, listed as Oplophorus gracilirostris)
chain: B1 chain with V90I, E115P, K124Q, I138Y, R166N
B2: the “Relative luminescence activity (Imax)” value in series [1] is 1.0. Also, in series [2], the “Relative luminescence activity, Furimazine, Imax” value is on record as 0.2; the “Relative luminescence activity, bis-CTZ, Imax” value stood at 0.5; the “Relative luminescence activity, f-CTZ, Imax” value is 1.0; the “Relative luminescence activity, h-CTZ, Imax” value turned out to be 1.2. Moreover, in series [2], the “Relative luminescence activity, Furimazine, Int.” value was 0.3; the “Relative luminescence activity, bis-CTZ, Int.” value came out at 0.1; the “Relative luminescence activity, f-CTZ, Int.” value was 0.9; the “Relative luminescence activity, h-CTZ, Int.” value is reported as 0.9. Further, in series [2], the “Relative luminescence activity, 6h-CTZ, Imax” value is listed as 0.08; the “Relative luminescence activity, 6h-CTZ, Int.” value came to 0.1; the “Relative luminescence activity, 6h-f-CTZ, Imax” value stood at 0.3; the “Relative luminescence activity, 6h-f-CTZ, Int.” value was found to be 0.4. For the same molecule, in series [2], the “Relative luminescence activity, CTZ, Imax” value is 1.0 and the “Relative luminescence activity, CTZ, Int.” value stood at 1.0. Also, in series [3], the “Relative luminescence activity (%, Imax) Cell extracts” value came out at 0.2% and the “Relative luminescence activity (%, Imax) Culture medium” value amounted to 0.1%. In addition, in series [4], the “Relative luminescence activity (%, Imax) Cell extracts” value was 0.2% and the “Relative luminescence activity (%, Imax) Culture medium” value came out at 0.1%. Moreover, the “Relative luminescence activity (Imax)” value in series [5] (setting [6]) was 1.0.

B3: WNanoKAZ-R166N: single amino acid-substituted WNanoKAZ mutant R166N; SEQ ID NO: 16 (protein)
chain: B1 chain with R166N
As to B3, in series [1], the “Relative luminescence activity (Imax)” value came out at 32, the “fold higher activity than native KAZ” value came to 32 fold and the “fold higher activity than the relative activity 7.4 of dnKAZ” value came out at 4.3 fold. For the same molecule, in series [2], the “Relative luminescence activity, Furimazine, Imax” value worked out at 17; the “Relative luminescence activity, bis-CTZ, Imax” value is 17; the “Relative luminescence activity, f-CTZ, Imax” value is given as 38; the “Relative luminescence activity, h-CTZ, Imax” value is 43. In series [2], the “Relative luminescence activity, Furimazine, Int.” value was found to be 12; the “Relative luminescence activity, bis-CTZ, Int.” value came to 18; the “Relative luminescence activity, f-CTZ, Int.” value stood at 27; the “Relative luminescence activity, h-CTZ, Int.” value came out at 28. Moreover, in series [2], the “fold higher activity than the other coelenterazine analogues when coelenterazine was used as the substrate” value was found to be 4.3 fold; the “Relative luminescence activity, 6h-CTZ, Imax” value turned out to be 4.6; the “Relative luminescence activity, 6h-CTZ, Int.” value was found to be 6.1; the “Relative luminescence activity, 6h-f-CTZ, Imax” value worked out at 13. In addition, in series [2], the “Relative luminescence activity, 6h-f-CTZ, Int.” value is recorded as 8.8; the “Relative luminescence activity, CTZ, Imax” value was 32; the “Relative luminescence activity, CTZ, Int.” value worked out at 36. In series [3], the “Relative luminescence activity (%, Imax) Cell extracts” value was found to be 26% and the “Relative luminescence activity (%, Imax) Culture medium” value is on record as under 0.01%.
